Values quoted from earlier work as cited in article PMC7519539.

Molecular target: RNA polymerase core (E) (Escherichia coli) (UniProt P0A7Z4)

Chain of sigma38 (P13445 whole entry): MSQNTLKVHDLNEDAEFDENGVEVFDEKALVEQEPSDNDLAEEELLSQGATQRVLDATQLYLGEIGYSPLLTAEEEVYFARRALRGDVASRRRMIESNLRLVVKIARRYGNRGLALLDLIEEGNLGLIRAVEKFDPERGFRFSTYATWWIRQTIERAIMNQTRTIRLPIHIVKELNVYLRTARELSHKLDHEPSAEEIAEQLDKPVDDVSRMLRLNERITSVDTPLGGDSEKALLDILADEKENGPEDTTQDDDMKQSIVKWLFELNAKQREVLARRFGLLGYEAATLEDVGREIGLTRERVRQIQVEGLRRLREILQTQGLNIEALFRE

**Q.** With sigma38 (from UniProt P13445) as the substance, how does the Kd read?
**A.** 4.26 nM
